Here are results for 20 sequences from the supplement of paper PMC9170038.

This data set relates to MS2 coat protein. Briefly: apparent KD of MS2 coat protein; designed switch direction (-1 OFF switch, 1 ON switch): 1; higher = weaker reporter binding. Summed up: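 Transcription of designed RNA switches on Illumina chips was done by stalled E. coli RNA polymerase. SNAP-549-labelled MS2 coat protein was then titrated in doubling steps from 0.7 or 1.5 nM to 3 µM, with steps of 0.8–1.5 h at the lowest and 10–20 min at the highest concentration. The per-design median over clusters of curve-fitted normalised fluorescence is reported as apparent KD.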

Where [1] appears, read: Eterna round: R95, input ligand: FMN 200 uM.
[2] abbreviates: Eterna round: R95, input ligand: microRNA oligo, concentration not stated.
[3] abbreviates: Eterna round: R95, input ligand: none.
[4] abbreviates: input ligand: microRNA oligo, concentration not stated.

On to “CCAUGGUAACAUGAGGAUCACCCAUGUACAAGCUUUUUGCUCGUCUUACCCGGCGCGCCCAUUAUGGGCGCGCCGGG [Nishu_Seq3] (puzzle: Sensor for hsa-mir-208a version 2)”, for which the “apparent KD of MS2 coat protein” value under setting [1] was found to be 41.1 nM, the “apparent KD of MS2 coat protein” value under setting [2] was determined as 45.4 nM and the “apparent KD of MS2 coat protein” value under setting [3] was 32.5 nM.

For the sequence “CCGAUGCAAAUAAAACAUGAGGAUCACCCAUGUGAGACACAUGAGGAUAUGCAGGUCAAAGACUUGCAGAAGGCAUAGCGUCGG [JL SSNG3 3.87] (Eterna round: R96, puzzle: Same State NG 3)”, the “apparent KD of MS2 coat protein” value (input ligand: FMN 200 uM) came to 24.1 nM, the “apparent KD of MS2 coat protein” value under setting [4] was 227 nM and the “apparent KD of MS2 coat protein” value (input ligand: none) is 270 nM.

On to “CCGAUGGUAUACUAGGAUAUGGGCGCCCUUACAUGAGGAUCACCCAUGUUAUCACAAAUCCGCGGCCAGAAGGAGUUCAUGGGAG [Ustiririra] (Eterna round: R96, puzzle: Same State 2)”, for which the “apparent KD of MS2 coat protein” value runs as follows: (input ligand: FMN 200 uM) 165 nM; under setting [4], 173 nM; (input ligand: none) 138 nM.

Regarding “CCUGCGAUAAGCGAGCGAACAUGAGGAUCACCCAUGUGGCGGCAGGAUAUGGGUGACCCAGCGACUCAGAAGGGCCGAAGCUAA [Eternabot solution 8] (Eterna round: R96, puzzle: Same State NG 3)”, the “apparent KD of MS2 coat protein” value by setting is: (input ligand: FMN 200 uM) 49.1 nM; under setting [4], 11.9 nM; (input ligand: none) 23.2 nM.

On to “CGAAAGAGGUGAGGAUAUGCAGAGGAUCACCCUGUAGAAGGCAUCAGGUGAGGAUAUGCAGAGGAUCACCCUGUAGAAGGCAUC [pwkr ssNG DX.12] (Eterna round: R96, puzzle: Same State NG 1)”, for which the “apparent KD of MS2 coat protein” value (input ligand: FMN 200 uM) worked out at 151 nM, the “apparent KD of MS2 coat protein” value under setting [4] worked out at 336 nM and the “apparent KD of MS2 coat protein” value (input ligand: none) is 596 nM.

On to “CGCAUCCUUGUUACAUGAGGAUCACCCAUGUUUUCGAGUGGAGAGGAUAUCGUAACAGUAUUUUUCGAGAAGGCUCUAUAGUAU [JR_SSNG3_Sub081] (Eterna round: R96, puzzle: Same State NG 3)”, for which the “apparent KD of MS2 coat protein” value was 52.1 nM (input ligand: FMN 200 uM), 39 nM under setting [4] and 57.3 nM (input ligand: none).

Regarding “CGCGGCAAGGAAGGAUAUGGGACGAAAACGUACCUAGAAGGUCCACAUGAGGAUCACCCAUGUACCAAGAAAACCGCUAAAUUA [Atceorer] (Eterna round: R96, puzzle: Same State NG 1)”, the “apparent KD of MS2 coat protein” value by setting is: (input ligand: FMN 200 uM) 70.7 nM; under setting [4], 177 nM; (input ligand: none) 207 nM.

As to “CGCGGUAAGGAAGGAUAUGGGACGAAAACGUACCUAGAAGGUCCACAUGAGGAUCACCCAUGUACCAAGAAAGCCGCUCAAUUA [Uszabeon] (Eterna round: R96, puzzle: Same State NG 1)”, the “apparent KD of MS2 coat protein” value (input ligand: FMN 200 uM) was 89.8 nM, the “apparent KD of MS2 coat protein” value under setting [4] worked out at 260 nM and the “apparent KD of MS2 coat protein” value (input ligand: none) came out at 334 nM.

Take “CGGAAACGAUGAGGAUAUGCAGAGGAUCACCCUGUAGAAGGCAAGAGAUGAGGAUAUGCAGAGGAUCACCCUGUAGAAGGCAAC [pwkr ssNG DX.4] (Eterna round: R96, puzzle: Same State NG 1)”: the “apparent KD of MS2 coat protein” value reads like this: (input ligand: FMN 200 uM) 146 nM; under setting [4], 56.5 nM; (input ligand: none) 84.9 nM.

On to “CGUAGGUAGCUGGAGGAUAUUCGAGUGGUAACAUGAGGAUCACCCAUGUGGUGAGAGGAACAUGAGGAGAAGGCUAGCUGCCUGC [JL-ss2-3.15 JL mod] (Eterna round: R96, puzzle: Same State 2)”, for which the “apparent KD of MS2 coat protein” value was found to be 1290 nM (input ligand: FMN 200 uM), 925 nM under setting [4] and 906 nM (input ligand: none).

With “CGUAGGUAGCUGGAGGAUAUUCGAGUGGUAACAUGAGGAUCACCCAUGUGGUGAGAGGAACAUGAGGAGAAGGCUAGCUGCCUGC [JL-ss2-3.15 JL mod] (puzzle: Same State 2)”, the “apparent KD of MS2 coat protein” value was 118 nM under setting [1], 96.2 nM under setting [2] and 76.9 nM under setting [3].

Turning to “CGUCCAGCCUGAGCUGGACAAAAGCAUGUACAUGAGGAUCACCCAUGUUCAUGUACAAGCUUUUUGCUCGUCUUACA [salish99_208a_r3_091x] (puzzle: Sensor for hsa-mir-208a)”, the “apparent KD of MS2 coat protein” value by setting is: under setting [1], 691 nM; under setting [2], 16.2 nM; under setting [3], 695 nM.

Take “CGUCCGGCCUGUGCUGGCCGGUGGCUUGUACAUGAGGAUCACCCAUGUUCUUGUGCUGGCUUUUUGCUCGUCUUGUG [salish99_mir208a_021] (puzzle: Sensor for hsa-mir-208a)”: the “apparent KD of MS2 coat protein” value by setting is: under setting [1], 37 nM; under setting [2], 18.9 nM; under setting [3], 43.8 nM.

For “CGUCGUUUGAUAGGAUAUCGCUAUACAUGAGGAUCACCCAUGUUUACCACGCUGGUUUUUCAUUCCGAGAAGGAUUCUGAUGUU [salish99_SSNG02_r04_021] (Eterna round: R96, puzzle: Same State NG 2)”, the “apparent KD of MS2 coat protein” value (input ligand: FMN 200 uM) was found to be 34.7 nM, the “apparent KD of MS2 coat protein” value under setting [4] is 26 nM and the “apparent KD of MS2 coat protein” value (input ligand: none) was found to be 36.1 nM.

For “CGUCGUUUGAUAGGAUAUCGCUUUCCAUGAGGAUCACCCAUGUUUACCACGCUGGUUUUUCUUUCCGAGAAGGAUUCUGAUGUU [salish99_SSNG02_r04_025] (Eterna round: R96, puzzle: Same State NG 2)”, the “apparent KD of MS2 coat protein” value stood at 169 nM (input ligand: FMN 200 uM), 143 nM under setting [4] and 153 nM (input ligand: none).

As for “CUAGCGCAUGCAGGAUAUCUGGUGUAUGCCUCGAGAUAACAUGAGGAUCACCCAUGUCCGCUCAAAGAGAAGGGCAUGCAAAUG [Eternabot solution 8] (Eterna round: R96, puzzle: Same State NG 2)”, the “apparent KD of MS2 coat protein” value is, setting by setting: (input ligand: FMN 200 uM) 1180 nM; under setting [4], 177 nM; (input ligand: none) 618 nM.

Turning to “CUCAAACAUGAGGAUCACCCAUGUGUUGUCAUGGGAGGAUAUCCCAGUUCGGUGACGUCGGGAGAAGGCCUAUGUC [× ×•×ª×• ×ž×“×™× ×” × ×—×ª-15] (puzzle: Same State 1)”, the “apparent KD of MS2 coat protein” value under setting [2] was 77.7 nM.

Regarding “CUCCGGAUUGACAUGAGGAUCACCCAUGUGCCCUCAUUAAAGUAGGAUAUACCUCGCAGUCGGGAGUAGAAGGACUUUAUGAGU [Eternabot solution 36] (Eterna round: R96, puzzle: Same State NG 3)”, the “apparent KD of MS2 coat protein” value (input ligand: FMN 200 uM) worked out at 204 nM, the “apparent KD of MS2 coat protein” value under setting [4] worked out at 91.1 nM and the “apparent KD of MS2 coat protein” value (input ligand: none) was 213 nM.

“CUGAGCGAUCGAGGAUAUCACGUCGAUUAGACGUGAGAAGGCGAUCAUAACAUGAGGAUCACCCAUGUAUUACAUGAAGCUCAG [SSNG1/4-A2] (Eterna round: R96, puzzle: Same State NG 1)”: the “apparent KD of MS2 coat protein” value (input ligand: FMN 200 uM) was 17.1 nM, the “apparent KD of MS2 coat protein” value under setting [4] came to 12.9 nM and the “apparent KD of MS2 coat protein” value (input ligand: none) amounted to 15.8 nM.

Take “CUGAGCGAUCUAGGAUAUCACGUCGAAUAGACGUGAGAAGGAGAUCAUAACAUGAGGAUCACCCAUGUAUUACAUGAAGCUCAG [SSNG1/6-A1] (Eterna round: R96, puzzle: Same State NG 1)”: the “apparent KD of MS2 coat protein” value by setting is: (input ligand: FMN 200 uM) 13.2 nM; under setting [4], 10.4 nM; (input ligand: none) 25.4 nM.
